T1: GST-human α2 I domain fusion protein (human, UniProt P17301 153-368)
T1 construct: the reverse primer ends at ...SIEGTV; also called GST-α2 I domain; hα2I; not shown: glutathione S-transferase tag encoded by vector pGEX-2TK
T1 sequence: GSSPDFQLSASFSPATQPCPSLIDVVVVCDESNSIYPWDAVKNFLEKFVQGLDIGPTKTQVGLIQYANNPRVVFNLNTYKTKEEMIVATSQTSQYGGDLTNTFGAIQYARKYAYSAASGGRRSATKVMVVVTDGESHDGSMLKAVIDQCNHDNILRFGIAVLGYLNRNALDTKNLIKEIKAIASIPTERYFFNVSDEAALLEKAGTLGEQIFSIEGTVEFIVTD

T2: GST-cynomolgus α2 I domain fusion protein of Example 18 (sequence identical to the human I domain) (cynomolgus monkey, UniProt P17301 153-368 (human entry))
T2 construct: also called GST-cynomolgous-α2 I domain fusion protein; not shown: glutathione S-transferase tag, vector not restated
T2 sequence: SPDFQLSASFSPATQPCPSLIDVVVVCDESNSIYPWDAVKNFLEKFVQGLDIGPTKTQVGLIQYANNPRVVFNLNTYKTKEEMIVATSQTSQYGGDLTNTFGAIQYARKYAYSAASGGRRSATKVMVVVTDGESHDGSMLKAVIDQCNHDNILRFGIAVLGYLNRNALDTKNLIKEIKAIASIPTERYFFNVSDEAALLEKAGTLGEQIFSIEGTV


Columns and labels:
[1] = target: human α2 integrin with endogenous hamster β1 on CHO cells (human; hamster); test: cell-based or functional assay
human α2 integrin with endogenous hamster β1 on CHO cells (human; hamster), sequence (P17301 30-1181 E534K): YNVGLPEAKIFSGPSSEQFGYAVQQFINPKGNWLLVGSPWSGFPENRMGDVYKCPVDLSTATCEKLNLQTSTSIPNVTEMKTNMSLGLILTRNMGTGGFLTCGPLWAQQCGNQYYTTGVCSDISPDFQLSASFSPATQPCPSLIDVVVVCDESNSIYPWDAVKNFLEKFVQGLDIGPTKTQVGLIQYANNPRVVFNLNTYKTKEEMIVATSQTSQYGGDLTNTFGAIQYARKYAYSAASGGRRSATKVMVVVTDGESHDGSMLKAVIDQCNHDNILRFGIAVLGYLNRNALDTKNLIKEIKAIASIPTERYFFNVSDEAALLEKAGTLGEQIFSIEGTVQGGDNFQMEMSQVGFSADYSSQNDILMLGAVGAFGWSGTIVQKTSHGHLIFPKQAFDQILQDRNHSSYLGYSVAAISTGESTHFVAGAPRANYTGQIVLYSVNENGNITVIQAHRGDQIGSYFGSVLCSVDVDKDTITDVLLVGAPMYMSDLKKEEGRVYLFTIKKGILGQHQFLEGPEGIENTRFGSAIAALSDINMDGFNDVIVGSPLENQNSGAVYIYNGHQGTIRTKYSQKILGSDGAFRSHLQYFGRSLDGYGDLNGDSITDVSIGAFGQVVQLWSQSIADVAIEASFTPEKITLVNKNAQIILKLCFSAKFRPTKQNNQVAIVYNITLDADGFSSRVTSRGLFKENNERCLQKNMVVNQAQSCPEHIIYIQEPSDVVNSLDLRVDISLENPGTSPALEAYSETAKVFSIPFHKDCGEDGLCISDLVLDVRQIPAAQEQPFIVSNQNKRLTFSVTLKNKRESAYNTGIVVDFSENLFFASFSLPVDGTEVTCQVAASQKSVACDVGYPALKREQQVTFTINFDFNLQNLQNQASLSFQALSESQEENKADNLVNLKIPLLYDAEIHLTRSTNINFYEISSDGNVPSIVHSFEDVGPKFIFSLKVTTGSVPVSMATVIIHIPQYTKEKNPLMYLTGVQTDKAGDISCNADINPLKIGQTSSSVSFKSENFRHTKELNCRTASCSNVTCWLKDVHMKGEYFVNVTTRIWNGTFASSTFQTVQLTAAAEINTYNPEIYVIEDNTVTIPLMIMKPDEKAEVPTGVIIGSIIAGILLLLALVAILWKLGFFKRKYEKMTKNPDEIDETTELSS

[2] = target: T3, human platelet α2β1 integrin (immobilized on microtiter plates) (human, UniProt P17301 30-1181; P05556 21-798); test: competition with Eu-TMC-2206 on human platelet α2β1-coated plate
T3 construct: plates custom-coated with human platelet α2β1 by GTI Inc; also called immobilized α2β1 integrin; α2β1-coated plates
T3 sequence (P17301 30-1181 E534K limits assumed, chain 1 of 2): as the sequence (P17301 30-1181 E534K) above
T3 sequence (P05556 21-798 limits assumed, chain 2 of 2): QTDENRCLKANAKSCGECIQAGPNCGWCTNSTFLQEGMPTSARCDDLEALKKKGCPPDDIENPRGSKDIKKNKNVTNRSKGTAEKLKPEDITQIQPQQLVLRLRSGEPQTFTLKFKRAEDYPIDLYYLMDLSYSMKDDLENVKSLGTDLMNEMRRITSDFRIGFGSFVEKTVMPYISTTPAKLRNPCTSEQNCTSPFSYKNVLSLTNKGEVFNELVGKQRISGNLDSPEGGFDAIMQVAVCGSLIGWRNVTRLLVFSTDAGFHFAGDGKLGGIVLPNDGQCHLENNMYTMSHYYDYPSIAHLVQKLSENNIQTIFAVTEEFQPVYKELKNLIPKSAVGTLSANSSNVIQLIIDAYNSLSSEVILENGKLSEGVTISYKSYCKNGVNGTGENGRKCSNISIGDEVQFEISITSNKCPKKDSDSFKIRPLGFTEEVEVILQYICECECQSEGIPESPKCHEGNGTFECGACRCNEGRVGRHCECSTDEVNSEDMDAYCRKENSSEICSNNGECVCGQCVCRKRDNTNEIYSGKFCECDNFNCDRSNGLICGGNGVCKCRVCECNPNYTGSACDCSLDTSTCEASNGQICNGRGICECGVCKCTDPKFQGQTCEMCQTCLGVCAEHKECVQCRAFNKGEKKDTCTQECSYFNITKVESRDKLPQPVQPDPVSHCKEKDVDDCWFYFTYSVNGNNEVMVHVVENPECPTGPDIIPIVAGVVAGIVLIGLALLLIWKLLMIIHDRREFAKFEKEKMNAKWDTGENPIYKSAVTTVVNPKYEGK
Description: Each labeled antibody mixture was applied to a separate PD-10 column (GE Biosciences, Piscataway, N.J.) pre-equilibrated with Running Buffer (50 mM Tris, pH 7.4 and 138 mM NaCl). Fractions (0.5 mL) were collected and assayed for total protein (Bradford reagent; Bio-Rad Laboratories, Hercules, Calif.) using a SpectraMax 384 absorbance plate reader and for europium after 1:10.000 dilution in DELFIA Enhancement Solution (Perkin-Elmer) by time-resolved fluorescence (TRF) using a Victor2 multi-label plate reader (Perkin Elmer). The fractions that were positive for both protein and Eu label were pooled and applied to new PD-10 columns and samples collected and assayed for total protein and for europium content by TRF calibrated against a europium standard solution (Perkin-Elmer) to calculate the fluor: protein ratio. […] After incubating the sealed plates for 1 hr at 37° C. to allow binding to reach equilibrium, 2 μL samples were transferred from each well into a fresh well containing DELFIA Enhancement Solution (100 μL/well; Perkin-Elmer) for the measurement of free (unbound) label. Enhancement Solution (100 μL/well) was added to the emptied wells for the measurement of bound label. The plate was shaken (Titer Plate Shaker speed setting of 5 for 5 minutes at room temperature) and time-resolved fluorescent (TRF) intensities were read using a Victor2 multi-label plate reader (Perkin-Elmer Wallac, Boston, Mas.).

[3] = target: T3, human platelet α2β1 integrin …; test: equilibrium binding of Eu-TMC-2206 to human platelet α2β1-coated plate, Scatchard
Description: Wells in a 96 well microtiter plate were coated with platelet α2β1-integrin (custom-coated with human platelet α2β1 by GTI Inc., Wis.) and then blocked with nonfat milk. […] After concentration in prewashed MicroSep concentrators (30-kDa cutoff; Pall Life Sciences at 9500 rpm (7000×g) in a JA-20 rotor (Beckman Instruments, Inc.) for 20 minutes at 4° C.), antibodies were adjusted to 4.0 mg/mL with PBS containing a final concentration of 100 mM NaHCO₃, pH 9.3. The mAb/bicarbonate mixture (0.250 mL) was gently mixed into a vial containing 0.2 mg N¹-(p-isothiocyanatobenzyl)-diethylenetriamine-N¹,N²,N³N³-tetraacetic acid chelated with Eu³⁺ (Eu-N1-ITC; Perkin Elmer Life Sciences) and reacted overnight at 4° C. without stirring. Each labeled antibody mixture was applied to a separate PD-10 column (GE Biosciences, Piscataway, N.J.) pre-equilibrated with Running Buffer (50 mM Tris, pH 7.4 and 138 mM NaCl). Fractions (0.5 mL) were collected and assayed for total protein (Bradford reagent; Bio-Rad Laboratories, Hercules, Calif.) using a SpectraMax 384 absorbance plate reader and for europium after 1:10.000 dilution in DELFIA Enhancement Solution (Perkin-Elmer) by time-resolved fluorescence (TRF) using a Victor2 multi-label plate reader (Perkin Elmer). […]

GST [4] = target: T4, GST (UniProt P08515 1-218 = GST); test: ELISA, GST on immobilized TMC-2206
T4 construct: also called GST fusion protein (negative control)
T4 sequence (P08515 whole entry, the tested form may be a part): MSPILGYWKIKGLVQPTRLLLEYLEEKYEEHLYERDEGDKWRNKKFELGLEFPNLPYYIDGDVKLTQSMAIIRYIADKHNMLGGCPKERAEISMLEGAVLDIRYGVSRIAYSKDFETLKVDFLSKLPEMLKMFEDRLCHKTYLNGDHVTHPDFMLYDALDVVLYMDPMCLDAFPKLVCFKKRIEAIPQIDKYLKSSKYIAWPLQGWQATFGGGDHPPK

[5] = target: T1, GST-human α2 I domain fusion protein; test: Eu-TMC-2206 on immobilized GST-α2 I domain at 37 °C, Scatchard
[6] = target: T2, GST-cynomolgus α2 I domain fusion …; test: SPR (Biacore 2000), antibody captured, GST-α2 I domain in solution
GST [7] = target: T4, GST; test: GST competing Eu-humanized TMC-2206 off α2β1-coated plate

| Binder | EC50 (nM), cell adhesion to collagen assay [1] | Ki [2] | Kd [3] | binding result (GST [4]) | Kd [5] | Kd [6] | koff [6] | kon [6] | binding result (GST [7]) |
| --- | --- | --- | --- | --- | --- | --- | --- | --- | --- |
| TMC-2206 (antibody, mouse IgG1, V domains shown, murine IgG1/κ secreted by hybridoma BHA2.1; labelled with Eu-N1-ITC where used as tracer; also called BHA2.1) VH: QVQLKESGPGLVAPSQSLSITCTVSGFSLTNYGIHWVRQPPGKGLEWLGVIWARGFTNYNSALMSRLIITKDNSQSQVFLKMNSLQPDDSATYFCARANDGVYYAMDYWGQGTSVTVSS VL: QFVLTQSPAFLSASPGEKVTMTCSANSSVNYIHWYQQKSGTSPKKWIYDTSKLASGVPVRFSGSGSGTSYSLTISSMETEDAATYYCQQWTTNPLTFGAGTRVELK | 1.03 nM | 0.22 nM | 0.374 nM | no binding (tested: ~1 µM) | 0.2 nM |  |  |  |  |
| Humanized TMC-2206 (hIgG4/κ VH12.0/VL10.0Q) (antibody, labelled with Eu or Alexa-488 in some assays) heavy: not shown light: DFVMTQSPAFLSVTPGEKVTITCSAQSSVNYIHWYQQKPDQAPKKLIYDTSKLASGVPSRFSGSGSGTDYTFTISSLEAEDAATYYCQQWTTNPLTFGQGTKVEIKRTVAAPSVFIFPPSDEQLKSGTASVVCLLNNFYPREAKVQWKVDNALQSGNSQESVTEQDSKDSTYSLSSTLTLSKADYEKHKVYACEVTHQGLSSPVTKSFNRGEC |  |  |  |  |  | 5 nM | 0.003 s⁻¹ | 500000 M⁻¹ s⁻¹ | no binding (tested: 0.4 µM) |

— patent publication US20070128190A1 (GLENMARK PHARMACEUTICALS S A, published 2007)
